Results from paper PMC2190564.

Molecular target: yeast actin filaments (S. cerevisiae) (UniProt P60010)
Experiment: co-sedimentation

Kd: < 100 nM
stoichiometry N (Abp1p per actin (molar)): 1
Substance: native yeast Abp1p (from UniProt P15891 1-592) (natural protein)
